According to the supplement of paper PMC10065799, “High-throughput profiling of sequence recognition by tyrosine kinases and SH2 domains using bacterial peptide display” (eLife, 2023):

Experiments:
Fer (mouse) = assay: phosphorylation enrichment, bacterial display (enrichment ratio); higher = better substrate or ligand; peptides without Tyr show the background
Hck = Hck (UniProt P08631); assay: as above
FGFR1 = FGFR1 (UniProt P11362); assay: as above
c-Abl (mouse) = assay: as above
EPHB2 = EPHB2 (UniProt P29323); assay: as above
AncSZ = assay: as above
Fyn = Fyn (UniProt P06241); assay: as above
Jak2 = Jak2 (UniProt O60674); assay: as above
FGFR3 = FGFR3 (UniProt P22607); assay: as above
MERTK = MERTK (UniProt Q12866); assay: as above
c-Src = assay: as above
Fes = Fes (UniProt P07332); assay: as above
EPHB1 = EPHB1 (UniProt P54762); assay: as above
SHP2-C SH2 = assay: SH2 binding enrichment of the phosphorylated peptide, bacterial display (enrichment ratio); higher = better substrate or ligand; peptides without Tyr show the background
c-Src SH2 = assay: as above
Grb2 SH2 = Grb2 SH2 (UniProt P62993); assay: as above
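For SH2 binding enrichment of the phosphorylated peptide, bacterial display in this document: peptide library displayed on the E. coli surface as eCPX fusions, selected cells deep-sequenced, score is each peptide's frequency after selection divided by its frequency in the input.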
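For phosphorylation enrichment, bacterial display in this document: 11-residue human phosphosite peptides and single-mutation variants displayed on the E. coli surface, counted by deep sequencing, each peptide's frequency after selection divided by its frequency in the unselected input library; frequency after pTyr selection over input frequency; kinase dosed for 20-30% of maximal phosphorylation in three min.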

Sequence of FGFR1 (P11362 whole entry, looked up): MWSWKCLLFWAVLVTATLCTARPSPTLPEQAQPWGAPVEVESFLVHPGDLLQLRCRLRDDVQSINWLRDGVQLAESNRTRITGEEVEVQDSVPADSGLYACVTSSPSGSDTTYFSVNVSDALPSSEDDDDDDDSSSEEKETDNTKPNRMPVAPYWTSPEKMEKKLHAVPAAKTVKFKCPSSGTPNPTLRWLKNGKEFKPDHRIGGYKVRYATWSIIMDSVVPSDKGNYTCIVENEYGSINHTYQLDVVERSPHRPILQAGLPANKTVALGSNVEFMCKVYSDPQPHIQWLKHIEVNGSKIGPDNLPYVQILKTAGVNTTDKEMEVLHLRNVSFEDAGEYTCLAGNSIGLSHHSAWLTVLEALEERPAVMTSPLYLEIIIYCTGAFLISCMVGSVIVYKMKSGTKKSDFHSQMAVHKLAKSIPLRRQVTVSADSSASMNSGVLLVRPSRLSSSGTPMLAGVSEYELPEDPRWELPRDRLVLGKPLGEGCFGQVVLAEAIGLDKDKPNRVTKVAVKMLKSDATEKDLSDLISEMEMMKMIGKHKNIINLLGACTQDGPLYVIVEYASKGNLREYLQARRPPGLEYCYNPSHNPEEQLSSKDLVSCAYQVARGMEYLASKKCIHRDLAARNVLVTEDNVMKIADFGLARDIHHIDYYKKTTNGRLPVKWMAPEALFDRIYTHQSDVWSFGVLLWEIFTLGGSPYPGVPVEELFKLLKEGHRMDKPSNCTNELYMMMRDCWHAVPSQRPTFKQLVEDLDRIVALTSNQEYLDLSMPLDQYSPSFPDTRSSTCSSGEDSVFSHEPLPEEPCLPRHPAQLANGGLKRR
Sequence of MERTK (Q12866 whole entry, looked up): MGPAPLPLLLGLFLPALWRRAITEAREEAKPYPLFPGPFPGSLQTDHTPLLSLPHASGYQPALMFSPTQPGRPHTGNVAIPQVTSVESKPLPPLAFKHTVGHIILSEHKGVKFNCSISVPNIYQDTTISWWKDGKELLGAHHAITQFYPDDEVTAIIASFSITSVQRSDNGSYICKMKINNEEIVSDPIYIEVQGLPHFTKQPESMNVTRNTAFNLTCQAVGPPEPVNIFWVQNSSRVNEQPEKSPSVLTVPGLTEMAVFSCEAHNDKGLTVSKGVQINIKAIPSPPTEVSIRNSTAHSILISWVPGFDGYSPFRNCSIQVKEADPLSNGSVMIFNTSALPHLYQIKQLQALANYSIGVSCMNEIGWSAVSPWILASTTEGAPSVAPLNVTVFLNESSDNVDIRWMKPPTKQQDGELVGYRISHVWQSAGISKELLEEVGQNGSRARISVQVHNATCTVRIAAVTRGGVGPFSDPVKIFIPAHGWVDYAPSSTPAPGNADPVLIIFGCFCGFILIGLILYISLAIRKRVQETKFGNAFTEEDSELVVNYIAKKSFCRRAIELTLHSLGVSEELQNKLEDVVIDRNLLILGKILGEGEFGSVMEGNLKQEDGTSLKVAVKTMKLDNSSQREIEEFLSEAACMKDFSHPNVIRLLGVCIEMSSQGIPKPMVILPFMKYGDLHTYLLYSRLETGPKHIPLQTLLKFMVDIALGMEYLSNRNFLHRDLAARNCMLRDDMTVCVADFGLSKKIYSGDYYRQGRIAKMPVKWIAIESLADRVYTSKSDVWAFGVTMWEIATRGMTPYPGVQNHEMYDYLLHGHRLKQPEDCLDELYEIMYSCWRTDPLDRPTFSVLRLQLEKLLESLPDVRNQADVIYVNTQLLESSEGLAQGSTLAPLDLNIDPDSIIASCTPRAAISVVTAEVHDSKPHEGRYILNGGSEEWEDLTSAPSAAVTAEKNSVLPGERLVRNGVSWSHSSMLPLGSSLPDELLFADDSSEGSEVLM
Sequence of Hck (P08631 whole entry, looked up): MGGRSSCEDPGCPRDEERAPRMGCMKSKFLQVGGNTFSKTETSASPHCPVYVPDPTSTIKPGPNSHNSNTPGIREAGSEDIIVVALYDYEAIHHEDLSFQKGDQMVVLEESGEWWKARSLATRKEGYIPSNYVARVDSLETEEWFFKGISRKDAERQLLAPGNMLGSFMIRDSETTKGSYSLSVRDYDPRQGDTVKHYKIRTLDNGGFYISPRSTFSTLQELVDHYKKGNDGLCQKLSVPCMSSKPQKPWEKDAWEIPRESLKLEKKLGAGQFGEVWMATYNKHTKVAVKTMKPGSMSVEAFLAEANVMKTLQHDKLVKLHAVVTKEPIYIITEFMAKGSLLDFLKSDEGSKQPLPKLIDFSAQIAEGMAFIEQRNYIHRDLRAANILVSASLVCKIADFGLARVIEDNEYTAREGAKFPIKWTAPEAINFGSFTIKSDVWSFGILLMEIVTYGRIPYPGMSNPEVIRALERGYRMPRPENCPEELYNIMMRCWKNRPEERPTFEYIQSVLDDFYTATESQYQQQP
Sequence of Jak2 (O60674 whole entry, looked up): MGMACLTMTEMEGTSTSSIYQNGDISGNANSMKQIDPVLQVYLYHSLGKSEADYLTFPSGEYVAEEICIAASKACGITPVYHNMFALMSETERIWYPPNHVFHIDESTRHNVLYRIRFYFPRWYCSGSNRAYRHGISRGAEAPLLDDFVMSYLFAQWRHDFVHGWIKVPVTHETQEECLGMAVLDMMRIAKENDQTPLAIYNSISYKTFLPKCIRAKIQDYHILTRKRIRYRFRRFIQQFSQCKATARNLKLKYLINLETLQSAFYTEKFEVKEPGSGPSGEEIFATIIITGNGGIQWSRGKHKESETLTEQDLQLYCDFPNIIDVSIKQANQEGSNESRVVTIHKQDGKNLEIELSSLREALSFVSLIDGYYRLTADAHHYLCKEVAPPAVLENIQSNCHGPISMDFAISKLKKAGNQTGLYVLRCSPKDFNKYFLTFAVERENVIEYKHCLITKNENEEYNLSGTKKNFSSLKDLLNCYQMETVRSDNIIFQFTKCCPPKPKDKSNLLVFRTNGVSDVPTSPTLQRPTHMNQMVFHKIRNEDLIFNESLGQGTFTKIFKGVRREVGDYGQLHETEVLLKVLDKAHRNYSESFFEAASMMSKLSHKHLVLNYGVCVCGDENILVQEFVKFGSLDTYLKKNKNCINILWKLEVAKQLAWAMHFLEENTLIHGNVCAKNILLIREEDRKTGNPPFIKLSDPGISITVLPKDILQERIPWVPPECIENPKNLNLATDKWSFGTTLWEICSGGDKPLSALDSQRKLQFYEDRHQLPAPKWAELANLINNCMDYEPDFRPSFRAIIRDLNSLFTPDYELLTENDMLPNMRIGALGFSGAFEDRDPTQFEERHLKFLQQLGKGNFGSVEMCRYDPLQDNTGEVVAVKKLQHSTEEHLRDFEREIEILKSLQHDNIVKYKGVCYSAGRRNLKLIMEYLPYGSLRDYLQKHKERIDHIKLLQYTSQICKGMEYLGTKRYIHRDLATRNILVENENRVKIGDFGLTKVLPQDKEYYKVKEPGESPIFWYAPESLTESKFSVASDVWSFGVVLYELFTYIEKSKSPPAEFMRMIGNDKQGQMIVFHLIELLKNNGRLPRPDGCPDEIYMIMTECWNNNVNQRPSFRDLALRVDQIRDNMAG
Sequence of EPHB1 (P54762 whole entry, looked up): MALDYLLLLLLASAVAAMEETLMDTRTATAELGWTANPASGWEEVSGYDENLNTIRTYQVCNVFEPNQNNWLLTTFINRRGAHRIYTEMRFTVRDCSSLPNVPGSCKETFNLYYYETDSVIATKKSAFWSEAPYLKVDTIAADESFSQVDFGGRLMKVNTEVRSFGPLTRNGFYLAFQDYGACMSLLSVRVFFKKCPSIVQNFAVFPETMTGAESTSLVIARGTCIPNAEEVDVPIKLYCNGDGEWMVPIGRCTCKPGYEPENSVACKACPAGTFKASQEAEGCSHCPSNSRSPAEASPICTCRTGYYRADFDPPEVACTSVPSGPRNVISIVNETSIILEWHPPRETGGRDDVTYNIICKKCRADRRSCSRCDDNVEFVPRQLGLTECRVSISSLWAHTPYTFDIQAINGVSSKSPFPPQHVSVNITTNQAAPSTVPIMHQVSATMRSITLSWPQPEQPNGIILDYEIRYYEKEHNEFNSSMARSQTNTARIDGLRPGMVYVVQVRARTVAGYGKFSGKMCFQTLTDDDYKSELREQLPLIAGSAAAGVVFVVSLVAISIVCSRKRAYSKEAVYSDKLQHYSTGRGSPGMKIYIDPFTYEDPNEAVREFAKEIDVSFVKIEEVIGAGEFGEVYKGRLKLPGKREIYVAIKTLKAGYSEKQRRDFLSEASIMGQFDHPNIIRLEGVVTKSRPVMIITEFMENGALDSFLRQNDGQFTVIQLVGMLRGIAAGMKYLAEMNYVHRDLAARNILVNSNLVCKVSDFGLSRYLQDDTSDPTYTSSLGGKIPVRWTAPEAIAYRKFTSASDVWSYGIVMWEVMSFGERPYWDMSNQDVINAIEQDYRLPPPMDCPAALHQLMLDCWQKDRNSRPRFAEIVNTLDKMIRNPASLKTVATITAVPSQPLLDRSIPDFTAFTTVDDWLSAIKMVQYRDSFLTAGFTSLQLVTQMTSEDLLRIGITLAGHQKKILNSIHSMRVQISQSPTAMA
Sequence of Grb2 SH2 (P62993 whole entry, looked up, the tested form may be a part): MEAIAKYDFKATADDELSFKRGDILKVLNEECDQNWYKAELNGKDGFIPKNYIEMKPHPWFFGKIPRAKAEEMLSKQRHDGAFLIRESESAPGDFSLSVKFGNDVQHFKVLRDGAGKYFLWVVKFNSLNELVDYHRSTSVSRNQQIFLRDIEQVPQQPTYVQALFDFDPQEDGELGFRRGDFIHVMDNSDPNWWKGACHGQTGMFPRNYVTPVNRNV

LQRCKNSHMEP [TEX45_Y434_Y434N]
phosphorylation enrichment (Fer (mouse)): 0.782
phosphorylation enrichment (Hck): 0.741
phosphorylation enrichment (FGFR1): 0.958
phosphorylation enrichment (c-Abl (mouse)): 0.641
phosphorylation enrichment (EPHB2): 0.848
phosphorylation enrichment (AncSZ): 0.599
phosphorylation enrichment (Fyn): 0.956
phosphorylation enrichment (Jak2): 0.9
phosphorylation enrichment (FGFR3): 0.729
phosphorylation enrichment (MERTK): 0.809
phosphorylation enrichment (c-Src): 0.747
phosphorylation enrichment (Fes): 0.865
phosphorylation enrichment (EPHB1): 0.939
SH2 binding enrichment (SHP2-C SH2): 0.942
SH2 binding enrichment (c-Src SH2): 0.691
SH2 binding enrichment (Grb2 SH2): 1.15

RHLREYPDLLN [DES_Y388_Q389P]
phosphorylation enrichment (Fer (mouse)): 0.352
phosphorylation enrichment (Hck): 0.53
phosphorylation enrichment (FGFR1): 0.584
phosphorylation enrichment (c-Abl (mouse)): 0.404
phosphorylation enrichment (EPHB2): 0.463
phosphorylation enrichment (AncSZ): 0.695
phosphorylation enrichment (Fyn): 0.389
phosphorylation enrichment (Jak2): 0.73
phosphorylation enrichment (FGFR3): 0.71
phosphorylation enrichment (MERTK): 0.569
phosphorylation enrichment (c-Src): 0.453
phosphorylation enrichment (Fes): 0.822
phosphorylation enrichment (EPHB1): 0.375
SH2 binding enrichment (SHP2-C SH2): 0.878
SH2 binding enrichment (c-Src SH2): 1.09
SH2 binding enrichment (Grb2 SH2): 1.25

RRAKGYPIYLY [ITGB2_Y125_D128Y]
phosphorylation enrichment (Fer (mouse)): 0.652
phosphorylation enrichment (Hck): 0.807
phosphorylation enrichment (FGFR1): 0.59
phosphorylation enrichment (c-Abl (mouse)): 0.951
phosphorylation enrichment (EPHB2): 0.624
phosphorylation enrichment (AncSZ): 0.997
phosphorylation enrichment (Fyn): 0.684
phosphorylation enrichment (Jak2): 0.682
phosphorylation enrichment (FGFR3): 1.18
phosphorylation enrichment (MERTK): 0.698
phosphorylation enrichment (c-Src): 1.04
phosphorylation enrichment (Fes): 0.922
phosphorylation enrichment (EPHB1): 0.44
SH2 binding enrichment (SHP2-C SH2): 0.504
SH2 binding enrichment (c-Src SH2): 0.477
SH2 binding enrichment (Grb2 SH2): 0.695

AHAGEYGADAL [HBA1_Y25_E28D]
phosphorylation enrichment (Fer (mouse)): 0.312
phosphorylation enrichment (Hck): 0.436
phosphorylation enrichment (FGFR1): 0.392
phosphorylation enrichment (c-Abl (mouse)): 0.776
phosphorylation enrichment (EPHB2): 0.416
phosphorylation enrichment (AncSZ): 0.606
phosphorylation enrichment (Fyn): 0.414
phosphorylation enrichment (Jak2): 0.578
phosphorylation enrichment (FGFR3): 0.41
phosphorylation enrichment (MERTK): 0.373
phosphorylation enrichment (c-Src): 0.357
phosphorylation enrichment (Fes): 0.653
phosphorylation enrichment (EPHB1): 0.401
SH2 binding enrichment (SHP2-C SH2): 0.61
SH2 binding enrichment (c-Src SH2): 0.448
SH2 binding enrichment (Grb2 SH2): 0.708

DPHECYAEVFD [ALB_Y394_K396E]
phosphorylation enrichment (Fer (mouse)): 0.617
phosphorylation enrichment (Hck): 0.944
phosphorylation enrichment (FGFR1): 1.2
phosphorylation enrichment (c-Abl (mouse)): 0.817
phosphorylation enrichment (EPHB2): 0.807
phosphorylation enrichment (AncSZ): 1.32
phosphorylation enrichment (Fyn): 0.753
phosphorylation enrichment (Jak2): 1.01
phosphorylation enrichment (FGFR3): 1.25
phosphorylation enrichment (MERTK): 0.626
phosphorylation enrichment (c-Src): 0.775
phosphorylation enrichment (Fes): 1.55
phosphorylation enrichment (EPHB1): 0.871
SH2 binding enrichment (SHP2-C SH2): 0.954
SH2 binding enrichment (c-Src SH2): 1.23
SH2 binding enrichment (Grb2 SH2): 1.1

DMGAQYAAASP [ARID1B_Y483]
phosphorylation enrichment (Fer (mouse)): 0.652
phosphorylation enrichment (Hck): 0.462
phosphorylation enrichment (FGFR1): 0.48
phosphorylation enrichment (c-Abl (mouse)): 0.652
phosphorylation enrichment (EPHB2): 0.552
phosphorylation enrichment (AncSZ): 0.647
phosphorylation enrichment (Fyn): 0.411
phosphorylation enrichment (Jak2): 0.653
phosphorylation enrichment (FGFR3): 0.584
phosphorylation enrichment (MERTK): 0.434
phosphorylation enrichment (c-Src): 0.504
phosphorylation enrichment (Fes): 0.71
phosphorylation enrichment (EPHB1): 0.486
SH2 binding enrichment (SHP2-C SH2): 0.647
SH2 binding enrichment (c-Src SH2): 0.63
SH2 binding enrichment (Grb2 SH2): 0.67

VGAKTYKMSMA [CPS1_Y309_A304V]
phosphorylation enrichment (Fer (mouse)): 0.268
phosphorylation enrichment (Hck): 0.307
phosphorylation enrichment (FGFR1): 0.367
phosphorylation enrichment (c-Abl (mouse)): 0.57
phosphorylation enrichment (EPHB2): 0.326
phosphorylation enrichment (AncSZ): 0.645
phosphorylation enrichment (Fyn): 0.399
phosphorylation enrichment (Jak2): 0.511
phosphorylation enrichment (FGFR3): 0.382
phosphorylation enrichment (MERTK): 0.428
phosphorylation enrichment (c-Src): 0.498
phosphorylation enrichment (Fes): 0.524
phosphorylation enrichment (EPHB1): 0.437
SH2 binding enrichment (SHP2-C SH2): 0.421
SH2 binding enrichment (c-Src SH2): 0.408
SH2 binding enrichment (Grb2 SH2): 0.725

HILRVYGGVLP [PCNX4_Y999]
phosphorylation enrichment (Fer (mouse)): 0.532
phosphorylation enrichment (Hck): 1.01
phosphorylation enrichment (FGFR1): 0.755
phosphorylation enrichment (c-Abl (mouse)): 0.874
phosphorylation enrichment (EPHB2): 0.676
phosphorylation enrichment (AncSZ): 1.07
phosphorylation enrichment (Fyn): 0.699
phosphorylation enrichment (Jak2): 0.765
phosphorylation enrichment (FGFR3): 1
phosphorylation enrichment (MERTK): 0.444
phosphorylation enrichment (c-Src): 0.588
phosphorylation enrichment (Fes): 1.12
phosphorylation enrichment (EPHB1): 0.591
SH2 binding enrichment (SHP2-C SH2): 1.01
SH2 binding enrichment (c-Src SH2): 0.635
SH2 binding enrichment (Grb2 SH2): 0.913

KGRGEYSAIKA [PRKCD_Y374_F375S]
phosphorylation enrichment (Fer (mouse)): 0.45
phosphorylation enrichment (Hck): 0.811
phosphorylation enrichment (FGFR1): 0.393
phosphorylation enrichment (c-Abl (mouse)): 0.761
phosphorylation enrichment (EPHB2): 0.366
phosphorylation enrichment (AncSZ): 0.553
phosphorylation enrichment (Fyn): 0.412
phosphorylation enrichment (Jak2): 0.636
phosphorylation enrichment (FGFR3): 0.443
phosphorylation enrichment (MERTK): 0.603
phosphorylation enrichment (c-Src): 0.625
phosphorylation enrichment (Fes): 0.864
phosphorylation enrichment (EPHB1): 0.434
SH2 binding enrichment (SHP2-C SH2): 0.933
SH2 binding enrichment (c-Src SH2): 1.81
SH2 binding enrichment (Grb2 SH2): 0.974

ALAHKYRGGGG [HBD_Y146_H147R]
phosphorylation enrichment (Fer (mouse)): 0.315
phosphorylation enrichment (Hck): 0.333
phosphorylation enrichment (FGFR1): 0.422
phosphorylation enrichment (c-Abl (mouse)): 0.471
phosphorylation enrichment (EPHB2): 0.362
phosphorylation enrichment (AncSZ): 0.404
phosphorylation enrichment (Fyn): 0.335
phosphorylation enrichment (Jak2): 0.351
phosphorylation enrichment (FGFR3): 0.364
phosphorylation enrichment (MERTK): 0.309
phosphorylation enrichment (c-Src): 0.432
phosphorylation enrichment (Fes): 0.495
phosphorylation enrichment (EPHB1): 0.311
SH2 binding enrichment (SHP2-C SH2): 0.598
SH2 binding enrichment (c-Src SH2): 0.535
SH2 binding enrichment (Grb2 SH2): 0.804

VERIHYIGQNE [HMOX2_Y140]
phosphorylation enrichment (Fer (mouse)): 0.434
phosphorylation enrichment (Hck): 0.453
phosphorylation enrichment (FGFR1): 0.555
phosphorylation enrichment (c-Abl (mouse)): 0.344
phosphorylation enrichment (EPHB2): 0.47
phosphorylation enrichment (AncSZ): 0.617
phosphorylation enrichment (Fyn): 0.494
phosphorylation enrichment (Jak2): 0.553
phosphorylation enrichment (FGFR3): 0.381
phosphorylation enrichment (MERTK): 0.522
phosphorylation enrichment (c-Src): 0.368
phosphorylation enrichment (Fes): 0.638
phosphorylation enrichment (EPHB1): 0.351
SH2 binding enrichment (SHP2-C SH2): 0.972
SH2 binding enrichment (c-Src SH2): 0.437
SH2 binding enrichment (Grb2 SH2): 1.08

FLEKFYKFGCR [NNMT_Y25_S29C_YF]
phosphorylation enrichment (Fer (mouse)): 0.546
phosphorylation enrichment (Hck): 0.443
phosphorylation enrichment (FGFR1): 0.631
phosphorylation enrichment (c-Abl (mouse)): 0.884
phosphorylation enrichment (EPHB2): 0.506
phosphorylation enrichment (AncSZ): 0.934
phosphorylation enrichment (Fyn): 0.512
phosphorylation enrichment (Jak2): 0.961
phosphorylation enrichment (FGFR3): 0.696
phosphorylation enrichment (MERTK): 0.432
phosphorylation enrichment (c-Src): 0.446
phosphorylation enrichment (Fes): 1.12
phosphorylation enrichment (EPHB1): 0.522
SH2 binding enrichment (SHP2-C SH2): 1.22
SH2 binding enrichment (c-Src SH2): 0.781
SH2 binding enrichment (Grb2 SH2): 1.11

NNVEQYQAMVT [TPR_Y965_S960N]
phosphorylation enrichment (Fer (mouse)): 0.528
phosphorylation enrichment (Hck): 0.551
phosphorylation enrichment (FGFR1): 0.581
phosphorylation enrichment (c-Abl (mouse)): 0.683
phosphorylation enrichment (EPHB2): 0.634
phosphorylation enrichment (AncSZ): 1.08
phosphorylation enrichment (Fyn): 0.542
phosphorylation enrichment (Jak2): 0.779
phosphorylation enrichment (FGFR3): 0.721
phosphorylation enrichment (MERTK): 0.523
phosphorylation enrichment (c-Src): 0.485
phosphorylation enrichment (Fes): 1.14
phosphorylation enrichment (EPHB1): 0.599
SH2 binding enrichment (SHP2-C SH2): 0.765
SH2 binding enrichment (c-Src SH2): 0.754
SH2 binding enrichment (Grb2 SH2): 0.67

QLPATYMNLGP [MST1R_Y1360]
phosphorylation enrichment (Fer (mouse)): 0.406
phosphorylation enrichment (Hck): 0.741
phosphorylation enrichment (FGFR1): 0.766
phosphorylation enrichment (c-Abl (mouse)): 0.87
phosphorylation enrichment (EPHB2): 0.548
phosphorylation enrichment (AncSZ): 0.547
phosphorylation enrichment (Fyn): 0.706
phosphorylation enrichment (Jak2): 1.42
phosphorylation enrichment (FGFR3): 0.616
phosphorylation enrichment (MERTK): 6.84
phosphorylation enrichment (c-Src): 1.23
phosphorylation enrichment (Fes): 0.747
phosphorylation enrichment (EPHB1): 2.99
SH2 binding enrichment (SHP2-C SH2): 1.46
SH2 binding enrichment (c-Src SH2): 1.92
SH2 binding enrichment (Grb2 SH2): 11
